Experimental findings from US20260028401A1 (SHENGHE CHINA BIOPHARMACEUTICAL, published 2026) are described below.

The target of assay [1] is T1, ILT4 on CHO-ILT4 cells (Manufacturer: Kang Yuan Bochuang, Cat: KC-1473) (UniProt Q8N423 22-597, limits assumed).
T1 construct: whole, on cells; also called ILT4 cell line
As to the kind of experiment: flow cytometry on CHO-ILT4 cells, 7-point 5-fold titration, anti-VHH PE detection. A general note: In flow cytometry, cells or beads pass a laser one at a time.

Assay [2] concerns the target T2, Human LILRB2/CD85d/ILT4 Protein, His Tag (Manufacturer: KACTUS, Cat: LIL-HM4B2) (human, UniProt Q8N423 22-460, limits assumed).
T2 construct: Bought recombinant protein; not shown: His tag
As to the kind of experiment: BLI (ForteBio, AHC biosensors), ILT4 His protein loaded as written, antibody at 100 nM, 180 s association, 200 s dissociation; non-humanized antibody of the invention. The protocol:
AHC Biosensors (Manufacturer: ForteBio. Inc., Cat: 18-5060) were pre-wetted for 20 min using PBST buffer and added to Human LILRB2/CD85d/ILT4 Protein, His Tag (Manufacturer: KATUS, Cat: LIL-HM4B2) protein diluted to 20 μg/mL using PBST to a target protein loading thickness of 1 nm. The antibody of the present invention and the antibody (humanized antibody) of the present invention (VHH and Fc sequences were SEQ ID NO: 6 and SEQ ID NO: 7, respectively) was diluted to 100 nM using PBST and added to the above sensor, and bound for 180 s and dissociated for 200 s.
Background: In BLI a coated tip is dipped into the sample, and binding shifts an interference pattern.

T1 sequence (Q8N423 22-597 limits assumed): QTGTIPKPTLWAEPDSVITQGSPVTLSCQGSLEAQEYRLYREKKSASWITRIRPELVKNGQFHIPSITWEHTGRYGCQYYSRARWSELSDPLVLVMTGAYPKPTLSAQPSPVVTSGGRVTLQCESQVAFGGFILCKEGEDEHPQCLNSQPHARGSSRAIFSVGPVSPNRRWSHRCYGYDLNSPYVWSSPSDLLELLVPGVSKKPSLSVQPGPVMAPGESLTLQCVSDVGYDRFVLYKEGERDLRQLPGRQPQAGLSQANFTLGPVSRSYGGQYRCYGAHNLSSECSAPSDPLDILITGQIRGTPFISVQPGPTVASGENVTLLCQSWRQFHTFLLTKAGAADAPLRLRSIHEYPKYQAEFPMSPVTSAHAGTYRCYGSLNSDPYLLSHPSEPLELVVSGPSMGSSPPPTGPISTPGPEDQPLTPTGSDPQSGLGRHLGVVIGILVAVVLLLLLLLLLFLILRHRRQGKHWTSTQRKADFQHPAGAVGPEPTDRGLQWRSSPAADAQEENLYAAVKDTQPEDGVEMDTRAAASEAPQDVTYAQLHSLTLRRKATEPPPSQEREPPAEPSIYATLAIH
T2 sequence (Q8N423 22-460 limits assumed): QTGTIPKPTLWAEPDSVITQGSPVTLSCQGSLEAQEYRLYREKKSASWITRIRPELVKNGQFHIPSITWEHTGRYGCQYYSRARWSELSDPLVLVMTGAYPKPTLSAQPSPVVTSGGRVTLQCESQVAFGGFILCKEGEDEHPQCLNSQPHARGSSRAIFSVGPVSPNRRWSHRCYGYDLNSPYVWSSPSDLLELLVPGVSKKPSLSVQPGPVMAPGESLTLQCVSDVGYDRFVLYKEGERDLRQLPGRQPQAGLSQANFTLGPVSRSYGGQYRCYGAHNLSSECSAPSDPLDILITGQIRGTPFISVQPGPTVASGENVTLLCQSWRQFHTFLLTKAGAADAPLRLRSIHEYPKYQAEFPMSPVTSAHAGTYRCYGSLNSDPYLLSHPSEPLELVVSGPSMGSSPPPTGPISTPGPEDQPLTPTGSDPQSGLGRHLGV

B1: the antibody of the present invention (anti-ILT4 single-domain antibody, alpaca VHH, SEQ ID NO: 4) (VHH)
VHH: EVQLVESGGGLGQAGGSLRLSCVVSGRTFSRYAMGWFRQAPGKEREFVAAISWSPGDITTYADSVRGRFTISRDNAKNTVYLQMNSLKPEDTAVYYCAADPTAWGTQYDYWGQGTQVTVSS
notes: VHH screened from an alpaca immune library
The EC50 is the concentration that produces a half-maximal response. High values mean a need for much substance, low ones an effect from little substance. As usually defined, the Kd is the concentration at which binding is half-saturated. B1 showed a half-maximal effective concentration (EC50) in assay [1] of 0.36 µg/mL. Further, in assay [2], the Kd came out at 0.107 nM.
